Reference: paper PMC11224324, “Structural and functional insights underlying recognition of histidine phosphotransfer protein in fungal phosphorelay systems” (Communications Biology, 2024)

B1: Histag-Ct_HPt (residues 9-175), labelled with Red-Tris NTA dye (natural protein)
chain: ADRAQDHNNNNTPRNSNYVVEEEEVSEEEEEAIMMPDFGDHVDTSIFGQILEMDEGDDHDFSAPLVLNFFEQAEETFQKMETALNNKDLPELSKLGHFLKGSSATLGFTKIRDSCQLIQQYGHGLNVDGSSEPDEGVCLKKIAEALASARVDTVALHKMMREFFEY
modifications: Red-Tris NTA Dye bound to the Histag

How the values were obtained:
Assay in all cases: MST; Histag-Ct_HPt labelled with Red-Tris NTA dye held constant; REC-1 domain in sixteen two-fold dilutions from 1 mM (0.32 mM for REC_hHK6); PBS + 0.05% Tween-20; medium MST power; hyperbolic fit, 1:1 model; mean of two titrations
Settings in all cases: both partners purified
[1] = molecular target: T1, REC_(hHK3), REC-1 domain of hybrid histidine kinase hHK3 (group III, ortholog of Nik1) from Chaetomium … (Chaetomium thermophilum)
T1 construct: REC-1 (receiver) domain of hHK3, CTHT_0053860, group III hybrid histidine kinase of C. thermophilum; not shown: His6, N-terminal, cleaved

[2] = molecular target: T2, REC_(hHK6), REC-1 domain of hybrid histidine kinase hHK6 (group VI, ortholog of Sln1) from Chaetomium … (Chaetomium thermophilum)
T2 construct: REC-1 (receiver) domain of hHK6, CTHT_0050920, group VI hybrid histidine kinase of C. thermophilum (protein ends at residue 1290); also called REC_(hHK6)-BeF; not shown: His6, N-terminal, cleaved

[3] = molecular target: B1

Binder	Kd [1] [µM]	Kd [2] [µM]	Kd [3] [µM]
B1	28 ± 0.1	13 ± 0.04	–
REC_(hHK3) N1107A/N1110A, double mutant of the REC-1 domain of hHK3 from Chaetomium thermophilum (domain or fragment) ENRATPSLADNTRSFEILLAEDAAVAQRLAVKILEKYHHVVTVVGNGEEAVEAVKRKKFDVILMDVQMPVMGGFEATAKIREYEASLPTPQRTPIIALTAHAMMGDREKCLEAQMDEYLSKPLQQANLIQTILKCA	–	–	46 ± 0.07
